From patent US20060142193

Molecular target: T1, serum response factor (SRF), P11831
T1 chain: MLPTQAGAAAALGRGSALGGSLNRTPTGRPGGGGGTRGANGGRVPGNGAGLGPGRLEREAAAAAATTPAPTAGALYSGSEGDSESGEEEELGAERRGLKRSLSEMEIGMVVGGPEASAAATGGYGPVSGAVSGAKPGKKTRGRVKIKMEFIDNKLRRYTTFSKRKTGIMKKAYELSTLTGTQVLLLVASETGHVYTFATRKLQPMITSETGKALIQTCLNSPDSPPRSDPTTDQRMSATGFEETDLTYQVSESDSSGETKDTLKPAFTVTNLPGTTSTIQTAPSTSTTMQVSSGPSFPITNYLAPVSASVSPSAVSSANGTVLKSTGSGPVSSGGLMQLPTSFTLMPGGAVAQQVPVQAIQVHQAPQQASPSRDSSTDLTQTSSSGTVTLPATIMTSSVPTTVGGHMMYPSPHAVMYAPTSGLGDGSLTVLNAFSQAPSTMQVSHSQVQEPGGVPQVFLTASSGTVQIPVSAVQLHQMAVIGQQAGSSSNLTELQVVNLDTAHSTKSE

B1: ROCK1Δ1 (C-terminally truncated mutant (1-1080) of ROCK1) (protein)
chain: MSTGDSFETRFEKMDNLLRDPKSEVNSDCLLDGLDALVYDLDFPALRKNKNIDNFLSRYKDTINKIRDLRMKAEDYEVVKVIGRGAFGEVQLVRHKSTRKVYAMKLLSKFEMIKRSDSAFFWEERDIMAFANSPWVVQLFYAFQDDRYLYMVMEYMPGGDLVNLMSNYDVPEKWARFYTAEVVLALDAIHSMGFIHRDVKPDNMLLDKSGHLKLADFGTCMKMNKEGMVRCDTAVGTPDYISPEVLKSQGGDGYYGRECDWWSVGVFLYEMLVGDTPFYADSLVGTYSKIMNHKNSLTFPDDNDISKEAKNLICAFLTDREVRLGRNGVEEIKRHLFFKNDQWAWETLRDTVAPVVPDLSSDIDTSNFDDLEEDKGEEETFPIPKAFVGNQLPFVGFTYYSNRRYLSSANPNDNRTSSNADKSLQESLQKTIYKLEEQLHNEMQLKDEMEQKCRTSNIKLDKIMKELDEEGNQRRNLESTVSQIEKEKMLLQHRINEYQRKAEQENEKRRNVENEVSTLKDQLEDLKKVSQNSQLANEKLSQLQKQLEEANDLLRTESDTAVRLRKSHTEMSKSISQLESLNRELQERNRILENSKSQTDKDYYQLQAILEAERRDRGHDSEMIGDLQARITSLQEEVKHLKHNLEKVEGERKEAQDMLNHSEKEKNNLEIDLNYKLKSLQQRLEQEVNEHKVTKARLTDKHQSIEEAKSVAMCEMEKKLKEEREAREKAENRVVQIEKQCSMLDVDLKQSQQKLEHLTGNKERMEDEVKNLTLQLEQESNKRLLLQNELKTQAFEADNLKGLEKQMKQEINTLLEAKRLLEFELAQLTKQYRGNEGQMRELQDQLEAEQYFSTLYKTQVKELKEEIEEKNRENLKKIQELQNEKETLATQLDLAETKAESEQLARGLLEEQYFELTQESKKAASRNRQEITDKDHTVSRLEEANSMLTKDIEILRRENEELTEKMKKAEEEYKLEKEEEISNLKAAFEKNINTERTLKTQAVNKLAEIMNRKDFKIDRKKANTQDLRKKEKENRKLQLELNQEREKFNQMVVKHQKELNDMQAQLVEECAHRNELQMQL
  level of full-length SRF after incubation with active caspase 3 in the presence or absence of ROCK1Δ1: The full-length level was markedly decreased in the presence of active ROCK1
